Assay results reported in patent US20190201542A1 (AbbVie / Abbott, published 2019).
Positions count from the first letter of the chain named.

T1: human ASCL1 (human, UniProt P50553 1-236, limits assumed)
T1 construct: Transcription factor; also called hASCL1; immobilized human ASCL1
T1 sequence (looked up): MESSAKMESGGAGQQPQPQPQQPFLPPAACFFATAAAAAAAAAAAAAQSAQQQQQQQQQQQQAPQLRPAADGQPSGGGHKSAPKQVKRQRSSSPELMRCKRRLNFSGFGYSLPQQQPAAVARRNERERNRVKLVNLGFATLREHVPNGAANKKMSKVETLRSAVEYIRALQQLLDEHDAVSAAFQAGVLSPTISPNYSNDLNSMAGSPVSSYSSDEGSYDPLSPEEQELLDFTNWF

T2: human DLL3 (human, UniProt Q9NYJ7 27-492, limits assumed)
T2 construct: also called hDLL3; DLL3 protein
T2 sequence: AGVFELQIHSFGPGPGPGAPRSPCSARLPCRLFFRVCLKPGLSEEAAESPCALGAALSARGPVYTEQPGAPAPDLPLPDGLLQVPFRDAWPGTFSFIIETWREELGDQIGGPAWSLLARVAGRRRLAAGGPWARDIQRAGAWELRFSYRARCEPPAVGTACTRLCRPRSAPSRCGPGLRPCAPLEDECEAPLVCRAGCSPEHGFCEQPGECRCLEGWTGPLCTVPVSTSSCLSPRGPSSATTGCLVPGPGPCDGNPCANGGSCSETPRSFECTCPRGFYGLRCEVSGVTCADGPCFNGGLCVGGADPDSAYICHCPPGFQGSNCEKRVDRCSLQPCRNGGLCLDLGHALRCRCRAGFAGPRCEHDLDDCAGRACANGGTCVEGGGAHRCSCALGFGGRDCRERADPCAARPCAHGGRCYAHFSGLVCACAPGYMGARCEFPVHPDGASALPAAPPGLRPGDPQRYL

B1: SC72.52 (antibody, V domains shown)
VH: QVQLQQPGSVLVRPGASVKLSCKASGYTFTSYWMHWVKQRPGQGLEWIGEIYPNSGRTNYNEKFKGKATLTVDTSSSTAYVDLSSLTSEDSAVYYCHYYDDNYGYWGQGTTLTVSS
VL: DIVITQDELSNPVTSGESVSISCRSSKSLLYKDGKTYLNWFLQRPGQSPQLLIYLMSTRASGVSDRFSGSGSGTDFTLEISRVKAEDVGVYYCQQFVEYPLTFGAGTKLELK
notes: murine mAb
B2: SC72.201 (antibody, V domains shown)
VH: EVNLEESGGGLVQPGGSMKLSCVASGFTFSNYWMNWVRQSPEKGLEWVAQIRSKSDNYATHYAESVKGRFTISRDDSKSSVYLQMNNLRSEDTGIYYCRTGPDVWGTGTTVTVSS
VL: DIQMTQSPASLSVSVGETVTITCRASENIYSSLAWYQQKQGNSPQLLVYAATKLADGVPSRFSGSGSGTQYSLKINSLQSEDFGSYYCQHFWGTTWTFGGGTKLEIK
notes: murine mAb
B3: SC72.91 (antibody, V domains shown)
VH: QVQLQQSGPEVVKPGASVKLSCKASGYTFTTYDINWVKQRPGQGLEWIGWIYFRDGTNKYNEKFKGKATLTVDTSSSTAYMELHSLTSEDSAVYFCASVYDGYYVSGFDIMDYWGQGTSVTVSS
VL: DVVLTQTPLSLPVSLGDQASIYCRSSQSIVHSNGNTYFEWYLQKPGQSPKLLIYKVSNRLSGVPDRFSGSGSGTDFTLKISRVEAVDLGIYYCFQASHVPFTFGAGTKLELK
notes: murine mAb
B4: SC72.63 (antibody, V domains shown)
VH: EVQLLQSGPELVKPGASVKMSCKASGYTLTDYNLHWVKQSHAKSLEWIGYINPYNGVTSYNQRFKGKATLTVNKSSSTAFMEFRSLTSEDSAVYYCVSLYYGDDPFACWGQGTLVTVST
VL: DIQMTQSPASLSASVGETVTMTCRASENIYSNLAWYQQKQGKSPQLLVYAATNLADDVPSRFSGSGSGTQFSLKINSLQPEDFGIYYCHHFYGSPLTFGAGTKLELK
notes: murine mAb
B5: SC72.132 (antibody, V domains shown)
VH: EVKLVESEGGLVQPGSSMKLSCTASGFTFSDYYMAWVRQVPEKGLEWVATIDYDGSNTYYLDSLKSRFIISRDNAKNILYLQMSSLKSEDTATYYCARDGGYDEDYFDYWGQGTTLTVSS
VL: DIVMSQSPSSLAVSVGEKVTLSCKSSQTLLYSSNQQNYLAWYQQKPGQSPKLLIYWASTRESGVPDRFTGSGSGTDFTLTISSVKAEDLAVYYCHQYYTYPFTFGSGTKLEIK
notes: murine mAb
B6: SC72.94 (antibody, V domains shown)
VH: QVQLQQPGTELVKPGASVKLSCKASAYTFTSLWIHWVKQRPGQGLEWIGDINPSIGDTYYNERFKSKATLTVDKSSSTAYMQLSSLTSEDSAVYYCTTGDSWGQGTTLTVSS
VL: DIQMNQSPSSLSASLGDTITITCRASQGISIWLSWYQQKPGNIPKLLIYKASNLHTGVPPSFSGSGSGTDFTLTISSLQPEDIATYYCLQSQSYPWTFGGGTKLEIK
notes: murine mAb
B7: SC72.96 (antibody, V domains shown)
VH: EVQLQQSGPELVKPGASVKMSCKASGYTLTAYNIHWVKQSHGKSLEWIGFINPHSGGTTYNEKFKGKATLTVNKSSSTANMELRSLTSEDSAVYYCASIYYYGSSYFDHWGQGTTLTVSS
VL: DIQMTQSPASLSASVGETVTMTCRASENIHSNLVWYQQKQGKSPQLLVYAATNLADGVPSRFSGSGSGSQFSLKIDSLQPEDFGSYLCQHFYGTPRTFGGGTKLEIK
notes: murine mAb
B8: SC72.165 (antibody, V domains shown)
VH: QVQLQQPGAELVRPGASVRLSCKASGYSFTSYWINWVKQRPGQGLEWIGNIYPGSSNTNYNEKFKRKATLTVDTSSSTAYMQLSSLTSDDSAVYYCARSESDYWGQGTTLTVSS
VL: DIVLTQSPASLAVSPGQRATISCKASQSVGYDGDTYLSWYQQKPGQPPKLLIYGVSILESGIPARFSGSGSGTDFTLNIHPVEEEDAATYYCQQSSEDPYTFGGGTKLEIK
notes: murine mAb
B9: SC72.181 (antibody, V domains shown)
VH: B8 VH with L11V, R13K, S28T, N57S, R66S, A97S
VL: B8 VL with P15L, G30D, Y31D, D34G, L37M, S56F, S96N
notes: murine mAb
B10: SC72.216 (antibody, V domains shown)
VH: QIQLVQSGPELRKPGETVKISCKASGYTFTNYPMHWVKQAPGKGFKWMGWINTYSGVPSYADDFKGRFAFSLETSASSAYLQINNLKNEDMATYFCARHNYNSYDVFAYWGQGTLVTVSA
VL: B8 VL with L4V, P15L, G30D, T35S, L37M, S38N, V55A, I57N, S96N
notes: murine mAb
B11: SC72.76 (antibody, V domains shown)
VH: QVQLKESGPGLVAPSQSLSITCTVSDFSLTNYAVHWVRQSPGKGLEWLGVIWSDGNTDYNAPFISRLSISKDNSKSQVFFKMNSLQADDTAIYYCASYGDSAYWGQGTLVTVSA
VL: DIVLTQSPASLTVSLGQRATISCRASQSVRTSNYSYMHWYQQKPGQPPKLLIKYASNLESGVPARFSGSGSGTDFTLNIHPVEEEDTATYYCQHHWEIPFTFGGGTKLEIK
notes: murine mAb
B12: hSC16.15 (antibody, human IgG1, kappa, V domains shown)
VH: QVQLVQSGAEVKKPGASVKVSCKASGYTFTRYWIHWIRQAPGQGLEWMGYINPTTVYTEFNQNFKDRVTMTRDTSTSTVYMELSSLRSEDTAVYYCARGGSNFFDYWGQGTTVTVSS
VL: AIQLTQSPSSLSASVGDRVTITCRASENIYYNLAWYQQKPGKAPKLLIYTANSLEDGVPSRFSGSGSGTDFTLTISSLQPEDFATYFCKQAYDVPPTFGGGTKLEIKR
notes: humanized IgG1/kappa; also called humanized SC16.15
B13: hSC16.34 (antibody, human IgG1, kappa, V domains shown)
VH: QVQLVQSGAEVKKPGASVKVSCKASGYTFTNYGMNWVRQAPGQRLEWMGWINTYTGDPTYADDFKGRVTITRDTSASTAYMELSSLRSEDTAVYYCARIGGNSPSDYWGQGTTVTVSS
VL: DIQMTQSPSSLSASVGDRVTITCKASQSVSNDVAWYQQKPGKVPKLLIYYASNRYSGVPSRFSGSGSGTDFTLTISSLQPEDVATYFCQQDYSSPWTFGGGTKVEIKR
notes: humanized IgG1/kappa; also called humanized SC16.34
B14: hSC16.56 (antibody, human IgG1, kappa, V domains shown)
VH: B13 VH with R44G, D57E, I70M, R72T, A76T, S84R, E89D, G101D, N102S, T113L
VL: EIVMTQSPATLSVSPGERATLSCKASQSVSNDVVWYQQKPGQAPRLLIYYASNRYTGIPARFSGSGSGTEFTLTISSLQSEDFAVYYCQQDYTSPWTFGQGTKLEIKR
notes: humanized IgG1/kappa; also called humanized SC16.56
B15: chimeric SC16.15 (antibody, human IgG1, kappa, V domains shown)
VH: QVQLQQSGAELAKPGASVKMSCKASGYTFTRYWIHWIKQRPGQGLEWIGYINPTTVYTEFNQNFKDKATLTADKSSTTASMQLSSLTSEDSAVYYCARGGSNFFDYWGQGTTLTVSS
VL: DIQMTQSPASLAASVGETVAITCRASENIYYNLAWYQQKQGKSPQLLIYTANSLEDGVPSRFSGSGSGTQYSLKINSMQPEDSATYFCKQAYDVPPTFGGGTKLEIKR
notes: murine V regions on human IgG1/kappa; also called chimeric parent antibody of hSC16.15
B16: chimeric SC16.34 (antibody, human IgG1, kappa, V domains shown)
VH: QIQLVQSGPELKRPGETVKISCKASGYTFTNYGMNWVKQAPGKGLKWMGWINTYTGDPTYADDFKGRFAFSLETSASTAYLQINNLKNEDTATYFCARIGGNSPSDYWGQGTSLTVSS
VL: SIVMTQTPKFLLVSAGDRVTITCKASQSVSNDVAWYQQKPGQSPKLLIYYASNRYSGVPDRFTGSGYGTDFTFTISTVQAEDLAVYFCQQDYSSPWTFGGGTKLEIKR
notes: murine V regions on human IgG1/kappa; also called chimeric parent antibody of hSC16.34
B17: chimeric SC16.56 (antibody, human IgG1, kappa, V domains shown)
VH: B16 VH with R13K, G49A, D57E, Y80S, N84I, G101D, N102S, S113T
VL: B16 VL with A34V, S56T, T63A, T72S, S93T, K107R
notes: murine V regions on human IgG1/kappa; also called chimeric parent antibody of hSC16.56
B18: chimeric SC16.25 (antibody, human IgG1, kappa, V domains shown)
VH: QVTLKESGPGILQPSQTLSLTCSFSGFSLSTSGMGVGWIRQPSGEGLEWLTDIWWDDNKYYNPSLKSRLTISKDTSSNQVFLNITSVDTADTATYYCARRVNYYYDPYYAMDYWGQGTSVTVSS
VL: QIVLTQSPAIMSASPGEKVTMTCSASSSVSYMHWYQQKSGTSPKRWIYDSSKLASGVPARFSGSGSGTSYSLTISSMEAEDAATYYCQQWSSNPLTFGAGTKLELKR
notes: murine V regions on human IgG1/kappa; also called chimeric parent antibody of hSC16.25
B19: hSC16.13 (antibody, human IgG1, kappa, V domains shown)
VH: QITLKESGPTLVKPTQTLTLTCTFSGFSLSTSGMGVGWIRQPPGKALEWLAHIWWDDVKRYSPSLKSRLTITKDTSKNQVVLTMTNMDPVDTATYYCARIVSFDNDVVSAMDYWGQGTLVTVSS
VL: DIQMTQSPSSLSASVGDRVTITCSASSSVSYMYWYQQKPGKAPKLLIYLTSNLASGVPSRFSGSGSGTDFTLTISSLQPEDFATYYCQQWRSNPFTFGQGTKLEIKR
notes: humanized IgG1/kappa; also called humanized SC16.13
B20: hSC16.25 (antibody, human IgG1, kappa, V domains shown)
VH: QITLKESGPTLVKPTQTLTLTCTFSGFSLSTSGMGVGWIRQPPGKALEWLTDIWWDDNKYYNPSLKSRLTITKDTSKNQVVLTMTNMDPVDTATYYCARRVNYYYDPYYAMDYWGQGTLVTVSS
VL: EIVLTQSPDFQSVTPKEKVTITCSASSSVSYMHWYQQKPDQSPKLLIKDSSKLASGVPSRFSGSGSGTDFTLTINSLEAEDAATYYCQQWSSNPLTFGQGTKLEIKR
notes: humanized IgG1/kappa; also called humanized SC16.25

The binders below were run against T1, human ASCL1 (assay: screen on immobilized hASCL1 or h293-hASCL1 cells).
B1: binds.
B2: binds.
B3: binds.
B4: binds.
B5: binds.
B6: binds.
B7: binds.
B8: binds.
B9: binds.
B10: binds.
B11: binds.

What follows are binders tested against T2, human DLL3 (assay: surface plasmon resonance).
B12: binds.
B13: binds.
B14: binds.
B15: binds.
B16: binds.
B17: binds.
B18: binds.
B19: binds.
B20: binds.
